Reference: patent US20150119554A1

B1: His6Rep4CTScFv (scFv)
chain: MHHHHHHGQGGYGGLGQGGYGQGAGSSAAAAAAAAAAAAGGQGGQGQGGYGQGSGGSAAAAAAAAAAAAAAAGRGQGGYGQGSGGNAAAAAAAAAAAAAAAGQGGQGGYGRQSQGAGSAAAAAAAAAAAAAAGSGQGGYGGQGQGGYGQSSASASAAASAASTVANSVSRLSSPSAVSRVSSAVSSLVSNGQVNMAALPNIISNISSSVSASAPGASGCEVIVQALLEVITALVQIVSSSSVGYINPSAVNQITNVVANAMAQVMGGNSEVQLLESGGGLVQPGGSLRLSCAASGFTFSSYEMNWVRQAPGKGLEWVSGISGSGGFTYYADSVKGRFTISRDNSKNTLYLQMNSLRAEDTAMYYCAREGYQDAFDIWGQGTLVTVSSGGGGSGGGGSGGGGSQSVLTQPPSASGTPGQRVTISCTGSSSNIGAGYDVHWYQQLPGTAPKLLIYSNNQRPSGVPDRFSGSKSGTSASLAISGLRSEDEADYYCAAWDDSLSGPPCVFGGGTKLTVLGEQKLISEEDLSGSAAA
B2: His6-scFv1-NTCT (scFv)
chain: MGSSGHHHHHHMEVQLLESGGGLVQPGGSLRLSCAASGFTFSSYEMNWVRQAPGKGLEWVSGISGSGGFTYYADSVKGRFTISRDNSKNTLYLQMNSLRAEDTAMYYCAREGYQDAFDIWGQGTLVTVSSGGGGSGGGGSGGGGSQSVLTQPPSASGTPGQRVTISCTGSSSNIGAGYDVHWYQQLPGTAPKLLIYSNNQRPSGVPDRFSGSKSGTSASLAISGLRSEDEADYYCAAWDDSLSGPPWVFGGGTKLTVLGEQKLISEEDLSGSAAAGNSSHTTPWTNPGLAENFMNSFMQGLSSMPGFTASQLDDMSTIAQSMVQSIQSLAAQGRTSPNKLQALNMAFASSMAEIAASEEGGGSLSTKTSSIASAMSNAFLQTTGVVNQPFINEITQLVSMFAQAGMNDVSAGNSGIQGYGQSSASASAAASAASTVANSVSRLSSPSAVSRVSSAVSSLVSNGQVNMAALPNIISNISSSVSASAPGASGCEVIVQALLEVITALVQIVSSSSVGYINPSAVNQITNVVANAMAQVMG
B3: His6ScFvRep4CT (scFv)
chain: MGSSGHHHHHHMEVQLLESGGGLVQPGGSLRLSCAASGFTFSSYEMNWVRQAPGKGLEWVSGISGSGGFTYYADSVKGRFTISRDNSKNTLYLQMNSLRAEDTAMYYCAREGYQDAFDIWGQGTLVTVSSGGGGSGGGGSGGGGSQSVLTQPPSASGTPGQRVTISCTGSSSNIGAGYDVHWYQQLPGTAPKLLIYSNNQRPSGVPDRFSGSKSGTSASLAISGLRSEDEADYYCAAWDDSLSGPPCVFGGGTKLTVLGEQKLISEEDLSGSAAAGNSGQGGYGGLGQGGYGQGAGSSAAAAAAAAAAAAGGQGGQGQGGYGQGSGGSAAAAAAAAAAAAAAAGRGQGGYGQGSGGNAAAAAAAAAAAAAAAGQGGQGGYGRQSQGAGSAAAAAAAAAAAAAAGSGQGGYGGQGQGGYGQSSASASAAASAASTVANSVSRLSSPSAVSRVSSAVSSLVSNGQVNMAALPNIISNISSSVSASAPGASGCEVIVQALLEVITALVQIVSSSSVGYINPSAVNQITNVVANAMAQVMG

Tests used:
[1] = molecular target: antigen of the ScFv (Example 1); test: spotted films, Alexa647-labelled pure antigen, fluorescence; reference ScFv alone
[2] = molecular target: antigen of scFv1 (Example 6); test: microarray of spotted films, 10 nM biotinylated antigen, Alexa-647-labeled streptavidin, spot intensity; reference scFv1 control

| Binder | fold more antigen bound compared to ScFv alone [1] | fold increase of antigen recognition compared to the scFv1 control alone [2] |
| --- | --- | --- |
| B1 | > 10 times | – |
| B2 | – | 25 times |
| B3 | 10 times | – |
